Experimental data as given in the supplement of paper PMC7877785.
± gives the uncertainty stated by the source.

Experiment: self-splicing fitness, log relative to wild type (ln ratio); higher = more splicing; Tetrahymena group I intron in knt gene, E. coli kanamycin selection, DiMSum; sequences stand for … in CUCUCU…GGAGGGAAAAGUUAUCAGGCAUGCACCUGGUAGCUAGUCUUUAAACCAAUAGAUUGCAUCGGUUUAAAAGGCAAGACCGUCAAAUUGCGGGAAAGGGGUCAACAGCCGUUCAGUACCAAGUCUCAGGGGAAACUUUGAGAUGGCCUUGCAAAGGGUAUGGUAAUAAGCUGACGGACAUGGUCCUAACCACGCAGCCAAGUCCUAAGUCAACAGAUCUUCUGUUGAUAUGGAUGCAGUUCACAGACUAAAUGUCGGUCGGGGAAGAUGUAUUCUUCUCAUAAGAUAUAGUCGGACCUCUCCUUAAUGGGAGCUAGCGGAUGAAGUGAUGCAACACUGGAGCCGCUGGGAACUAAUUUGUAUGCGAAAGUAUAUUGAUUAGUUUUGGAGUACUCGUGGUCG
In short: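 A randomised library covering all eight P1ex-region intron nucleotides was built with the intron in the knt kanamycin-resistance gene on pET-22b(+) and held in E. coli BL21(DE3). Cells were grown overnight at 37°C or 30°C on LB agar, with or without 25 μg/mL kanamycin, plus 100 μg/mL carbenicillin, 50 μM IPTG and 0.2% rhamnose, and pooled colonies were amplicon-sequenced on an Illumina HiSeq 2500. DiMSum fitness is the error-weighted combination of wild-type-normalised replicate fold changes, kanamycin versus none.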

GGUCAGCAAUAUUACGCUUU
self-splicing fitness (ln) (30 °C): 0.129 ± 0.071
self-splicing fitness (ln) (37 °C): -0.0673 ± 0.092

UUUCAGCAAUAUUACGAGCU
self-splicing fitness (ln) (37 °C): -1.95 ± 0.5

CCCAAGCAAUAUUACGAGUG
self-splicing fitness (ln) (30 °C): -2.61 ± 0.16
self-splicing fitness (ln) (37 °C): -2.94 ± 0.17

UACUAGCAAUAUUACGCGUC
self-splicing fitness (ln) (30 °C): -2.73 ± 0.14
self-splicing fitness (ln) (37 °C): -1.81 ± 0.14

AAAGAGCAAUAUUACGGCGU
self-splicing fitness (ln) (30 °C): -1.87 ± 0.098
self-splicing fitness (ln) (37 °C): 0.269 ± 0.094

CUGCAGCAAUAUUACGGAGC
self-splicing fitness (ln) (30 °C): -3.93 ± 0.47
self-splicing fitness (ln) (37 °C): -2.61 ± 0.31

CAACAGCAAUAUUACGGCGU
self-splicing fitness (ln) (30 °C): -2.15 ± 0.091
self-splicing fitness (ln) (37 °C): -0.0717 ± 0.092

UCUCAGCAAUAUUACGAUGC
self-splicing fitness (ln) (30 °C): -3.28 ± 0.28
self-splicing fitness (ln) (37 °C): -2.55 ± 0.27

UCUGAGCAAUAUUACGCAAC
self-splicing fitness (ln) (37 °C): -2.24 ± 0.29

AGUAAGCAAUAUUACGUCUC
self-splicing fitness (ln) (30 °C): -3.31 ± 0.25
self-splicing fitness (ln) (37 °C): -2.96 ± 0.47

CCGAAGCAAUAUUACGCUGU
self-splicing fitness (ln) (30 °C): -3.74 ± 0.32
self-splicing fitness (ln) (37 °C): -2.84 ± 0.4

GGCCAGCAAUAUUACGCAGU
self-splicing fitness (ln) (30 °C): -1.37 ± 0.12
self-splicing fitness (ln) (37 °C): -1.86 ± 0.19

CGUUAGCAAUAUUACGUAUC
self-splicing fitness (ln) (37 °C): -2.15 ± 0.28

CGUCAGCAAUAUUACGCGUG
self-splicing fitness (ln) (30 °C): -0.575 ± 0.054
self-splicing fitness (ln) (37 °C): -0.39 ± 0.066

UACUAGCAAUAUUACGUAAA
self-splicing fitness (ln) (30 °C): -1.66 ± 0.12
self-splicing fitness (ln) (37 °C): -0.614 ± 0.14

GGGGAGCAAUAUUACGACGU
self-splicing fitness (ln) (30 °C): -0.89 ± 0.12
self-splicing fitness (ln) (37 °C): -0.094 ± 0.15

UAGAAGCAAUAUUACGUUCC
self-splicing fitness (ln) (30 °C): -2.51 ± 0.19
self-splicing fitness (ln) (37 °C): -0.539 ± 0.17

UGUCAGCAAUAUUACGAAGA
self-splicing fitness (ln) (30 °C): -0.706 ± 0.11
self-splicing fitness (ln) (37 °C): -0.132 ± 0.11

AUUGAGCAAUAUUACGGCCC
self-splicing fitness (ln) (37 °C): 0.679 ± 0.5

AGCGAGCAAUAUUACGUUCC
self-splicing fitness (ln) (37 °C): -1.3 ± 0.24

AAAUAGCAAUAUUACGGUCU
self-splicing fitness (ln) (30 °C): 0.108 ± 0.076
self-splicing fitness (ln) (37 °C): -0.388 ± 0.084

GACGAGCAAUAUUACGCUCA
self-splicing fitness (ln) (30 °C): -1.28 ± 0.15
self-splicing fitness (ln) (37 °C): -0.493 ± 0.13

UCUCAGCAAUAUUACGAUCA
self-splicing fitness (ln) (30 °C): -0.104 ± 0.17
self-splicing fitness (ln) (37 °C): -0.219 ± 0.17

UCACAGCAAUAUUACGCCUA
self-splicing fitness (ln) (30 °C): -1.95 ± 0.3
self-splicing fitness (ln) (37 °C): -0.577 ± 0.18

GUGGAGCAAUAUUACGGAAU
self-splicing fitness (ln) (30 °C): -3.23 ± 0.16
self-splicing fitness (ln) (37 °C): -1.33 ± 0.17

UCCGAGCAAUAUUACGAAGA
self-splicing fitness (ln) (30 °C): -1.62 ± 0.21
self-splicing fitness (ln) (37 °C): -1.12 ± 0.18

GCCCAGCAAUAUUACGUGAA
self-splicing fitness (ln) (30 °C): -0.204 ± 0.053
self-splicing fitness (ln) (37 °C): 0.177 ± 0.077

CUAUAGCAAUAUUACGAGUC
self-splicing fitness (ln) (30 °C): -2.61 ± 0.24
self-splicing fitness (ln) (37 °C): -2.52 ± 0.3

GGCUAGCAAUAUUACGAUGA
self-splicing fitness (ln) (30 °C): -0.793 ± 0.15
self-splicing fitness (ln) (37 °C): -0.54 ± 0.16

UCAAAGCAAUAUUACGGCUA
self-splicing fitness (ln) (30 °C): -0.599 ± 0.1
self-splicing fitness (ln) (37 °C): -1.31 ± 0.13

CAAGAGCAAUAUUACGCUCU
self-splicing fitness (ln) (30 °C): -3.49 ± 0.32
self-splicing fitness (ln) (37 °C): -1.86 ± 0.27

GCGUAGCAAUAUUACGCUAG
self-splicing fitness (ln) (30 °C): -2.9 ± 0.2
self-splicing fitness (ln) (37 °C): -2.54 ± 0.29

AAAGAGCAAUAUUACGGAGU
self-splicing fitness (ln) (30 °C): -3.33 ± 0.2
self-splicing fitness (ln) (37 °C): -3.16 ± 0.26

AUCCAGCAAUAUUACGGGAA
self-splicing fitness (ln) (30 °C): -1.17 ± 0.079
self-splicing fitness (ln) (37 °C): -0.654 ± 0.082

GUAGAGCAAUAUUACGCAGC
self-splicing fitness (ln) (30 °C): -0.915 ± 0.17
self-splicing fitness (ln) (37 °C): -2.37 ± 0.22

UGUUAGCAAUAUUACGCCCA
self-splicing fitness (ln) (30 °C): 0.342 ± 0.28
self-splicing fitness (ln) (37 °C): -0.34 ± 0.41

CCGAAGCAAUAUUACGGCUA
self-splicing fitness (ln) (30 °C): -2.89 ± 0.29
self-splicing fitness (ln) (37 °C): -1.64 ± 0.24

AAUCAGCAAUAUUACGCGUU
self-splicing fitness (ln) (30 °C): -0.956 ± 0.057
self-splicing fitness (ln) (37 °C): -0.765 ± 0.076

CUCAAGCAAUAUUACGCCUU
self-splicing fitness (ln) (37 °C): -3.47 ± 0.39

UGUCAGCAAUAUUACGUGUC
self-splicing fitness (ln) (37 °C): -2.37 ± 0.21
